The target in assay [1] is CD8α-Fc fusion protein (human). As to the kind of experiment: phage ELISA on coated CD8α-Fc, blank control. Background: In an ELISA, binding on a coated surface is turned into a signal by an enzyme label.
The target in another assay is Fc protein. As to the kind of experiment: phage ELISA on coated Fc protein, blank control.

The record followed here is patent US20240209089A1.

Values joined by “and” are separate entries in the source; they are usually repeats but may differ in a detail not shown here. Equal values may be shown once.

Chain of CD8α-Fc fusion protein (human) (chain, as listed by the source): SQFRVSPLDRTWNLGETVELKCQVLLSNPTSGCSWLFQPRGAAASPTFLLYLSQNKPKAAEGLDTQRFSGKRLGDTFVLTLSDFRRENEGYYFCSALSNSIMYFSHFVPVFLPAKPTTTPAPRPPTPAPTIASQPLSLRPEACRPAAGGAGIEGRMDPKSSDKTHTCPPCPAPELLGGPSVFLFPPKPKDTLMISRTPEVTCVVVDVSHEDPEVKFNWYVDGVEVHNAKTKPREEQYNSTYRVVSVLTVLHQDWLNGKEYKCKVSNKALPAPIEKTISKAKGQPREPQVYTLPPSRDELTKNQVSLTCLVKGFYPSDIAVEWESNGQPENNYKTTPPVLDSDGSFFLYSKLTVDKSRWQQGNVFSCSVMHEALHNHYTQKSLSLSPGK

Consider blank phage, for which the OD450 was 0.067 in assay [1]; 0.093 and 0.068 with Fc protein.
